Assay results taken from patent US20130034568A1 (UNIVERSITY OF LOUISVILLE RESEARCH FOUNDATION, published 2013).

Legend:
[1] = molecular target: C5a receptor (C5aR; CD88), mouse, on peritoneal macrophages (mouse) (UniProt P30993); assay: cell-based or functional assay
[2] = molecular target: T1, CXC-chemokine receptor 4 (CXCR4), mouse, on peritoneal macrophages (mouse, UniProt P70658 1-359); assay: FRET, acceptor photobleaching, labelled antibodies on P. gingivalis-challenged mouse macrophages
T1 construct: whole, on cells
T1 sequence (P70658 whole entry): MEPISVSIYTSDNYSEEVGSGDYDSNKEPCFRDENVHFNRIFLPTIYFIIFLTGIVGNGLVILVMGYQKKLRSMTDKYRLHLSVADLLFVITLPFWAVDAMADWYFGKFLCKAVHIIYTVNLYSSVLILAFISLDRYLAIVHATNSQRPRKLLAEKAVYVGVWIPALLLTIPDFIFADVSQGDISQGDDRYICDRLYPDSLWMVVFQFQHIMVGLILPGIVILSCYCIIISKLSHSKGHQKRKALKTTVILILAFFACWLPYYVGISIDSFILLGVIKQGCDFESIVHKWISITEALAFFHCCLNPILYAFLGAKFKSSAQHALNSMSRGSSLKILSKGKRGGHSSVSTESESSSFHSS
Experimental: (§1) Upon stimulation for 10 min at 37° C. with P. gingivalis, mouse macrophages were labeled with a mixture of Cy3-conjugated (donor) and Cy5-conjugated (acceptor) antibodies, as indicated in FIG. 4I. In additional experiments shown in FIG. 4I, FITC-labeled P. gingivalis was used as donor and TRITC-labeled receptors served as acceptors. The cells were washed and fixed, and energy transfer between various donor-acceptor pairs was calculated from the increase in donor fluorescence after acceptor photobleaching (REF 9, 14). […] The conjugation of antibodies to Cy3 or Cy5 was performed using kits from Amersham Biosciences.

[3] = molecular target: T2, TLR5, mouse, on peritoneal macrophages (mouse, UniProt Q9JLF7 27-859); assay: FRET, acceptor photobleaching, labelled antibodies on P. gingivalis-stimulated mouse macrophages
T2 construct: whole, on cells; Negative control in FRET; detected with antibody clone 85B152.5; also called Toll-like receptor 5
T2 sequence (Q9JLF7 27-859): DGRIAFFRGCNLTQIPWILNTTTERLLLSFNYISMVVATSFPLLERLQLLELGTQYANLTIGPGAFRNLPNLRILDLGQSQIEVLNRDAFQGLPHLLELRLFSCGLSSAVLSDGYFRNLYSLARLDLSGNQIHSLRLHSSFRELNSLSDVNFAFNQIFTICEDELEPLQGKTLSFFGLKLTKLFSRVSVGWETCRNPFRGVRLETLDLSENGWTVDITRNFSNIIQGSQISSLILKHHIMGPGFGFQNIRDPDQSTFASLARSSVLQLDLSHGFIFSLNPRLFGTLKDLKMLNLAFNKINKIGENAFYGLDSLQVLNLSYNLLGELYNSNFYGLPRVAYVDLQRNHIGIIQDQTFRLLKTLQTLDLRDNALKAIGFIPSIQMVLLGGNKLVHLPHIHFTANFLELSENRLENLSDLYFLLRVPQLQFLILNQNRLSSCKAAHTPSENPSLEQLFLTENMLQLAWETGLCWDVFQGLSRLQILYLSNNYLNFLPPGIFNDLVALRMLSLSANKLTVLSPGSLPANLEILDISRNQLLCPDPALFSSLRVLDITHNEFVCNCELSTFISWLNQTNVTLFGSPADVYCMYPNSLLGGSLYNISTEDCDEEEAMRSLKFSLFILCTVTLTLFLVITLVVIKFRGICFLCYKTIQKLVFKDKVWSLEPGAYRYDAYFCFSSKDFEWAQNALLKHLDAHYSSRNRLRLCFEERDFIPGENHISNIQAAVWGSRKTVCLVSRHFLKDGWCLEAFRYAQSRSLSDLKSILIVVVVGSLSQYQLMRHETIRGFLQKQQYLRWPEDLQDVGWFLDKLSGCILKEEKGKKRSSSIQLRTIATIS
Experimental: as §1

Molecule	intracellular cAMP in P. gingivalis-stimulated mouse macrophages [1]	binding result [2]	binding result [3]
Mouse C5a (from UniProt P06684 679-755) (ligand)	> 3 fold		
C5a receptor (C5aR; CD88), mouse, on peritoneal macrophages (receptor, UniProt P30993 1-351, looked up, whole, on cells; In FRET it was detected with a dye-labelled mouse-specific monoclonal antibody (clone 20/70); also called complement C5a receptor) MDPIDNSSFEINYDHYGTMDPNIPADGIHLPKRQPGDVAALIIYSVVFLVGVPGNALVVWVTAFEARRAVNAIWFLNLAVADLLSCLALPVLFTTVLNHNYWYFDATACIVLPSLILLNMYASILLLATISADRFLLVFKPIWCQKVRGTGLAWMACGVAWVLALLLTIPSFVYREAYKDFYSEHTVCGINYGGGSFPKEKAVAILRLMVGFVLPLLTLNICYTFLLLRTWSRKATRSTKTLKVVMAVVICFFIFWLPYQVTGVMIAWLPPSSPTLKRVEKLNSLCVSLAYINCCVNPIIYVMAGQGFHGRLLRSLPSIIRNALSEDSVGRDSKTFTPSTTDTSTRKSQAV		binds	no binding
